± gives the standard deviation of the averaged measurements.
System: ATP
Test: switch fluorescence ratio, 500 uM ATP over buffer (Cy3 cluster intensity, sum of 5 cycles each) (fold (ratio)); higher = stronger signal-on switching upon ATP binding; sequences stand for … in TCGTCGGCAGCGTCAGATGTGTATAAGAGACAGTTTTTTTTTTTTTTTTTTTTTTTTT…TC
Conditions: aptamer strand: ATP DNA aptamer (quencher-CACCTGGGGGAGTATTGCGGAGGAAGG + anchor), 100 nM annealed; ATP concentration: 500 uM
Method in brief: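 Clusters carrying Cy3-labelled switching strands on a modified Illumina MiSeq flow-cell were annealed to 100 nM quencher-labelled ATP aptamer and imaged in selection buffer. They were imaged again after 15 min with 500 uM ATP at 22 °C, over five buffer/ATP cycles with NaOH stripping and re-annealing in between. For each cluster, the fluorescence ratio is the summed Cy3 intensity of the target cycles divided by that of the buffer cycles, averaged per switch-domain sequence. Clusters outside 100-1000 RFU were left out.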
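Further: ATP exposure 15 min at 22 °C before imaging.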

CGTAAAATTT
switch fluorescence ratio: 1.05 ± 0.12

CGTAAACGCT
switch fluorescence ratio: 1.04 ± 0.024

CGTAAACTAG
switch fluorescence ratio: 0.97 ± 0.016

CGTAAAGCCT
switch fluorescence ratio: 0.991 ± 0.02

CGTAAAGGAG
switch fluorescence ratio: 0.992 ± 0.052

CGTAACTGTT
switch fluorescence ratio: 0.995 ± 0.091

CGTAACTTGG
switch fluorescence ratio: 1.01 ± 0.029

CGTAATGCTT
switch fluorescence ratio: 1.17 ± 0.032

CGTAATGGGA
switch fluorescence ratio: 1.04 ± 0.025

CGTAATTTCT
switch fluorescence ratio: 1.06 ± 0.038

CGTAATTTTA
switch fluorescence ratio: 1.01 ± 0.027

CGTACCGGGT
switch fluorescence ratio: 1.01 ± 0.022

CGTACGGCAG
switch fluorescence ratio: 0.9978 ± 0.0052

CGTACTCCTT
switch fluorescence ratio: 1.12 ± 0.025

CGTACTTAGC
switch fluorescence ratio: 1.069 ± 0.0034

CGTAGAGAAA
switch fluorescence ratio: 0.991 ± 0.044

CGTAGCTAGA
switch fluorescence ratio: 1.89 ± 0.047

CGTAGGAGTC
switch fluorescence ratio: 0.963 ± 0.15

CGTAGGCCGA
switch fluorescence ratio: 0.952 ± 0.068

CGTAGGTATG
switch fluorescence ratio: 0.983 ± 0.023

CGTAGTAAAT
switch fluorescence ratio: 1.062 ± 0.0087

CGTAGTATAT
switch fluorescence ratio: 1.25 ± 0.043

CGTATAAGTT
switch fluorescence ratio: 0.937 ± 0.018

CGTATCAGGG
switch fluorescence ratio: 1.01 ± 0.032

CGTATGAAAT
switch fluorescence ratio: 0.9985 ± 0.0089

CGTATGAGGG
switch fluorescence ratio: 0.9679 ± 0.0066

CGTATGGTTG
switch fluorescence ratio: 1.06 ± 0.09

CGTATTAGAG
switch fluorescence ratio: 1.01 ± 0.048

CGTATTAGCG
switch fluorescence ratio: 0.952 ± 0.025

CGTATTATAA
switch fluorescence ratio: 1.01 ± 0.023

CGTATTCTAG
switch fluorescence ratio: 1 ± 0.023

CGTATTTTGG
switch fluorescence ratio: 0.986 ± 0.032

CGTCAATCT
switch fluorescence ratio: 1.53 ± 0.061

CGTCAGGCTT
switch fluorescence ratio: 0.987 ± 0.052

CGTCATATGG
switch fluorescence ratio: 1.07 ± 0.012

CGTCATCGGG
switch fluorescence ratio: 0.973 ± 0.029

CGTCATGCGT
switch fluorescence ratio: 0.964 ± 0.025

CGTCATTTAC
switch fluorescence ratio: 1.63 ± 0.074

CGTCATTTGG
switch fluorescence ratio: 0.9769 ± 0.0044

CGTCCAGTTC
switch fluorescence ratio: 1.08 ± 0.023

CGTCCCCGAG
switch fluorescence ratio: 1.054 ± 0.0087

CGTCCTAGGG
switch fluorescence ratio: 1.04 ± 0.043

CGTCGAGGCG
switch fluorescence ratio: 0.971 ± 0.035

CGTCGGAAAG
switch fluorescence ratio: 1.01 ± 0.024

CGTCGGAGTC
switch fluorescence ratio: 1.04 ± 0.031

CGTCGGGGG
switch fluorescence ratio: 0.982 ± 0.044

CGTCGGGGGA
switch fluorescence ratio: 1.01 ± 0.027

CGTCGGGGGC
switch fluorescence ratio: 1.005 ± 0.0096

CGTCGTGACA
switch fluorescence ratio: 1.03 ± 0.029

CGTCTAGTCG
switch fluorescence ratio: 1 ± 0.025

CGTCTATTTG
switch fluorescence ratio: 0.993 ± 0.023

CGTCTCGAAC
switch fluorescence ratio: 1 ± 0.014

CGTCTCTTAG
switch fluorescence ratio: 0.995 ± 0.027

CGTCTGATTG
switch fluorescence ratio: 1.01 ± 0.025

CGTCTGGCGA
switch fluorescence ratio: 1.02 ± 0.014

CGTCTTGGAA
switch fluorescence ratio: 1.01 ± 0.013

CGTGACCGCC
switch fluorescence ratio: 1.08 ± 0.028

CGTGACCGGA
switch fluorescence ratio: 0.972 ± 0.014

CGTGACCTGT
switch fluorescence ratio: 0.996 ± 0.022

CGTGAGGCAG
switch fluorescence ratio: 0.978 ± 0.056

CGTGAGGGGC
switch fluorescence ratio: 1.028 ± 0.01

CGTGATGATG
switch fluorescence ratio: 0.982 ± 0.06

CGTGCATTGA
switch fluorescence ratio: 1.03 ± 0.022

CGTGCTGGTG
switch fluorescence ratio: 1.03 ± 0.022

CGTGCTTAGT
switch fluorescence ratio: 1.02 ± 0.022

CGTGGAGAGC
switch fluorescence ratio: 1.06 ± 0.043

CGTGGGATAG
switch fluorescence ratio: 1.04 ± 0.036

CGTGGGATTG
switch fluorescence ratio: 1.012 ± 0.004

CGTGGGGCAG
switch fluorescence ratio: 1.01 ± 0.024

CGTGGGGGGT
switch fluorescence ratio: 1.01 ± 0.018

CGTGGGGTTG
switch fluorescence ratio: 1.01 ± 0.054

CGTGGGTCTT
switch fluorescence ratio: 1.04 ± 0.03

CGTGGTATCA
switch fluorescence ratio: 0.982 ± 0.077

CGTGGTCATC
switch fluorescence ratio: 0.9766 ± 0.0073

CGTGGTCGTC
switch fluorescence ratio: 0.991 ± 0.03

CGTGGTCGTG
switch fluorescence ratio: 0.9672 ± 0.00049

CGTGTAGTGG
switch fluorescence ratio: 0.984 ± 0.018

CGTGTATTCG
switch fluorescence ratio: 1.01 ± 0.031

CGTGTCCAGG
switch fluorescence ratio: 1.3 ± 0.024

CGTGTCCGTG
switch fluorescence ratio: 1.01 ± 0.011

CGTGTCGACA
switch fluorescence ratio: 0.9631 ± 0.0068

CGTGTCGCTG
switch fluorescence ratio: 0.971 ± 0.024

CGTGTGCATG
switch fluorescence ratio: 1.06 ± 0.13

CGTGTGGGAC
switch fluorescence ratio: 1.0136 ± 0.00016

CGTGTGGTTT
switch fluorescence ratio: 1.03 ± 0.037

CGTGTGTACA
switch fluorescence ratio: 0.98 ± 0.01

CGTGTGTGGC
switch fluorescence ratio: 1.02 ± 0.0032

CGTGTTGGCT
switch fluorescence ratio: 1.072 ± 0.0032

CGTGTTGGTC
switch fluorescence ratio: 1 ± 0.012

CGTGTTTTTT
switch fluorescence ratio: 0.991 ± 0.029

CGTTAAATGT
switch fluorescence ratio: 0.998 ± 0.022

CGTTAAGTTA
switch fluorescence ratio: 0.974 ± 0.012

CGTTAATTAG
switch fluorescence ratio: 1.02 ± 0.042

CGTTAATTTA
switch fluorescence ratio: 1.01 ± 0.034

CGTTACAAGC
switch fluorescence ratio: 1.1 ± 0.086

CGTTACACAA
switch fluorescence ratio: 1.04 ± 0.035

CGTTAGCAGA
switch fluorescence ratio: 1.19 ± 0.086

CGTTAGCATT
switch fluorescence ratio: 1.17 ± 0.027

CGTTAGGATG
switch fluorescence ratio: 0.984 ± 0.011

CGTTATGAGG
switch fluorescence ratio: 0.991 ± 0.011

CGTTATTAGC
switch fluorescence ratio: 1.033 ± 0.01

CGTTATTGCT
switch fluorescence ratio: 1.016 ± 0.0039

CGTTCATGGG
switch fluorescence ratio: 0.993 ± 0.017

CGTTCCGGGC
switch fluorescence ratio: 1.2 ± 0.12

CGTTCGCGCG
switch fluorescence ratio: 1.02 ± 0.023

CGTTCGTGGG
switch fluorescence ratio: 0.953 ± 0.018

CGTTCTATTC
switch fluorescence ratio: 1.11 ± 0.17

CGTTGAGACC
switch fluorescence ratio: 0.995 ± 0.019

CGTTGAGTAT
switch fluorescence ratio: 0.981 ± 0.019

CGTTGAGTTG
switch fluorescence ratio: 0.986 ± 0.032

CGTTGAGTTT
switch fluorescence ratio: 0.994 ± 0.047

CGTTGCACAT
switch fluorescence ratio: 1.07 ± 0.016

CGTTGCGAGT
switch fluorescence ratio: 0.9726 ± 0.009

CGTTGCGCTA
switch fluorescence ratio: 1.1 ± 0.012

CGTTGCTACA
switch fluorescence ratio: 1.01 ± 0.019

CGTTGGAAGC
switch fluorescence ratio: 0.982 ± 0.018

CGTTGGAATC
switch fluorescence ratio: 1.12 ± 0.014

CGTTGGCATA
switch fluorescence ratio: 1.149 ± 0.0065

CGTTGGCGGT
switch fluorescence ratio: 1.02 ± 0.043

CGTTGGGATC
switch fluorescence ratio: 0.99281 ± 0.00021

CGTTGGGGGA
switch fluorescence ratio: 0.997 ± 0.029

CGTTGGTGCG
switch fluorescence ratio: 0.98 ± 0.059

CGTTGGTTCC
switch fluorescence ratio: 1.034 ± 0.0058

CGTTGTGGGG
switch fluorescence ratio: 0.966 ± 0.023

CGTTTAAATC
switch fluorescence ratio: 0.986 ± 0.013

CGTTTACCGT
switch fluorescence ratio: 0.983 ± 0.019

CGTTTATAGG
switch fluorescence ratio: 1.015 ± 0.009

CGTTTATAGT
switch fluorescence ratio: 1.02 ± 0.039

CGTTTCATTT
switch fluorescence ratio: 0.995 ± 0.027

CGTTTCCCGG
switch fluorescence ratio: 0.992 ± 0.031

CGTTTCGTCT
switch fluorescence ratio: 1.05 ± 0.024

CGTTTGAAGC
switch fluorescence ratio: 0.978 ± 0.059

CGTTTGATTA
switch fluorescence ratio: 0.989 ± 0.017

CGTTTGGAAT
switch fluorescence ratio: 1.03 ± 0.051

CGTTTGGACA
switch fluorescence ratio: 0.9893 ± 0.0051

CGTTTGGCGG
switch fluorescence ratio: 0.987 ± 0.064

CGTTTGTATA
switch fluorescence ratio: 0.987 ± 0.015

CGTTTGTGAT
switch fluorescence ratio: 0.9993 ± 0.0076

CGTTTGTGCG
switch fluorescence ratio: 1.01 ± 0.053

CGTTTGTTAT
switch fluorescence ratio: 1.05 ± 0.04

CGTTTGTTCG
switch fluorescence ratio: 1.03 ± 0.071

CGTTTTGAGG
switch fluorescence ratio: 0.96 ± 0.034

CGTTTTGGCA
switch fluorescence ratio: 1.02 ± 0.027

CGTTTTGTGA
switch fluorescence ratio: 1 ± 0.0054

CGTTTTTAGT
switch fluorescence ratio: 1.002 ± 0.0072

CGTTTTTGCC
switch fluorescence ratio: 1.0037 ± 0.00025

CTAAAAACGG
switch fluorescence ratio: 1.002 ± 0.01

CTAAAATGAA
switch fluorescence ratio: 1.03 ± 0.018

CTAAACCTGG
switch fluorescence ratio: 1.13 ± 0.034

CTAAAGGTTT
switch fluorescence ratio: 1.004 ± 0.003

CTAAATAGAA
switch fluorescence ratio: 0.983 ± 0.074

CTAAATAGCA
switch fluorescence ratio: 1.01 ± 0.016

CTAAATCGGC
switch fluorescence ratio: 1.03 ± 0.035

CTAAATGAGC
switch fluorescence ratio: 0.979 ± 0.02

CTAAATTTC
switch fluorescence ratio: 1.02 ± 0.08

CTAACGCCTT
switch fluorescence ratio: 1.13 ± 0.042

CTAACGTGAG
switch fluorescence ratio: 1.02 ± 0.034

Reference: the supplement of paper PMC10126150
